Each block holds one substance with its values, some of them ahead of it.
Tests used:
[1] = biological target: SUMO-tagged WIPI2b^Δ (residues 13 to 362 without 265 to 297) (human); assay: SEC-MALS
[2] = biological target: SUMO-tagged WIPI2b^Δ (residues 13 to 362 without 265 to 297) (human); assay: ITC

Sequence of Trx-tagged ATG16L1(78 to 247) (Q676U5 78-247): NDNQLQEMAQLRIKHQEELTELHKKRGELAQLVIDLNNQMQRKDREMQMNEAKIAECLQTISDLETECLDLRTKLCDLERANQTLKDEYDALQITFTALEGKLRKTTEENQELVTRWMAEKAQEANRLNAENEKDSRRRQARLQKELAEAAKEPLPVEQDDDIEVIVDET
Sequence of Trx-tagged ATG16L1(207 to 247) (Q676U5 207-247): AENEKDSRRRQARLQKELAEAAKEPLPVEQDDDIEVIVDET
Sequence of ATG16L1(124 to 247) (Q676U5 124-247): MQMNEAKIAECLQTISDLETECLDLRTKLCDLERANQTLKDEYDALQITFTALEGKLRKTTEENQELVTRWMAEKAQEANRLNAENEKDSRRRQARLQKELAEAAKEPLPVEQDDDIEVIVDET
Sequence of Trx-tagged ATG16L1(78 to 206) (Q676U5 78-206): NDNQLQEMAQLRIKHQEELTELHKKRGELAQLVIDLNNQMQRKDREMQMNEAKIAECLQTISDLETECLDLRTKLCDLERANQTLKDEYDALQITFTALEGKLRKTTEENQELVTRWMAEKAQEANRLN

- stoichiometry N (ATG16L1 chains per WIPI2b^Δ (2:2)) [1]: 1
Substance: ATG16L1(124 to 247) (from UniProt Q676U5 124-247) (domain or fragment)

- Kd [2]: 6.88 µM
Substance: Trx-tagged ATG16L1(78 to 206) (from UniProt Q676U5 78-206) (domain or fragment)

- KD of the WBS1 site (two-site fit) [2]: 2.88 µM
- KD of the WBS2 site (two-site fit) [2]: 0.41 µM
Substance: Trx-tagged ATG16L1(78 to 247) (from UniProt Q676U5 78-247) (domain or fragment)

- Kd [2]: 3.93 µM
Substance: Trx-tagged ATG16L1(207 to 247) (from UniProt Q676U5 207-247) (domain or fragment)

Source: publication PMC9977175
